The target of assay [1] is HLA-DP2 with human peptide HU15 (human).
Assay [2] concerns the target HLA-DP2 with human peptide HU33 (human).
Assay [3] concerns the target HLA-DP2 with human peptide HU28 (human).
Assay [4] concerns the target HLA-DP2 with human peptide HU22 (human).
Assay [5] has as its target HLA-DP2 with human peptide HU21 (human).
Assay [6] deals with HLA-DP2 with human peptide HU19 (human).
Assay [7] has as its target HLA-DP2 with human peptide HU6 (human).
In assay [8] the target is HLA-DP2 with human peptide HU9 (human).
Assay [9] concerns the target HLA-DP2 with human peptide HU17 (human).
In assay [10] the target is HLA-DP2 with human peptide HU3 (human).
Assay [11] has as its target HLA-DP2 with human peptide HU2 (human).
Assay [12] concerns the target HLA-DP2 with human peptide HU31 (human).
The target in assay [13] is HLA-DP2 with human peptide HU1 (human).
In assay [14] the target is HLA-DP2 with human peptide HU39 (human).
In assay [15] the target is HLA-DP2 with human peptide HU20 (human).
Assay [16] addresses HLA-DP2 with human peptide HU5 (human).
The target in assay [17] is HLA-DP2 with human peptide HU29 (human).
For assay [18], the target named is HLA-DP2 with human peptide HU25 (human).
For assay [19], the target named is HLA-DP2 with human peptide HU24 (human).
The target of assay [20] is HLA-DP2 with human peptide HU11 (human).
Assay [21] addresses HLA-DP2 with human peptide HU38 (human).
Assay [22] addresses HLA-DP2 with human peptide HU35 (human).
The target of assay [23] is HLA-DP2 with human peptide HU8 (human).
Assay [24] deals with HLA-DP2 with human peptide HU10 (human).
Assay [25] addresses HLA-DP2 with human peptide HU16 (human).
In assay [26] the target is HLA-DP2 with human peptide HU7 (human).

Consider AV9 TCR on the T cell hybridoma AV9, for which the IL-2 secretion of AV9 hybridoma, 0.5 µg/ml peptide, 75 µM BeSO4 was found to be 49.3 pg/mL in assay [1]; 954 pg/mL in [2]; 4.6 pg/mL in assay [3]; 4.1 pg/mL in assay [4]; 48.8 pg/mL in assay [5]; 4.6 pg/mL in assay [6]. For the same substance, the IL-2 secretion of AV9 hybridoma, 0.5 µg/ml peptide, 75 µM BeSO4 was 4.1 pg/mL in assay [7]; 48.6 pg/mL in assay [8]; 16.3 pg/mL in assay [9]; 75.1 pg/mL in [10]; 966 pg/mL in [11]; 1040 pg/mL in assay [12]. Further, the IL-2 secretion of AV9 hybridoma, 0.5 µg/ml peptide, 75 µM BeSO4 was found to be 1120 pg/mL in assay [13]; 68.7 pg/mL in assay [14]; 4.6 pg/mL in [15]; 4.6 pg/mL in assay [16]; 4.6 pg/mL in assay [17]; 847 pg/mL in assay [18]. The IL-2 secretion of AV9 hybridoma, 0.5 µg/ml peptide, 75 µM BeSO4 stood at 4.6 pg/mL in assay [19], 5.6 pg/mL in assay [20], 5.1 pg/mL in [21] and 1040 pg/mL in assay [22].
AV22 TCR on the T cell hybridoma AV22: the IL-2 secretion of AV22 hybridoma, 0.5 µg/ml peptide, 75 µM BeSO4 in [23] was found to be 4.6 pg/mL; in assay [4], 5.1 pg/mL; in [24], 5.1 pg/mL; in [5], 17.4 pg/mL; in assay [6], 4.1 pg/mL; in [25] it was 4.6 pg/mL. Besides, the IL-2 secretion of AV22 hybridoma, 0.5 µg/ml peptide, 75 µM BeSO4 was determined as 21.7 pg/mL in [8]; 15.6 pg/mL in assay [9]; 29.3 pg/mL in assay [10]; 716 pg/mL in assay [11]; 973 pg/mL in assay [12]; 997 pg/mL in [13]. The IL-2 secretion of AV22 hybridoma, 0.5 µg/ml peptide, 75 µM BeSO4 in assay [26] stood at 4.1 pg/mL; in assay [14] it was 22.4 pg/mL; in [15], 4.6 pg/mL; in assay [16], 4.1 pg/mL; in assay [18], 622 pg/mL; in [21], 5.6 pg/mL. In addition, in assay [22], the IL-2 secretion of AV22 hybridoma, 0.5 µg/ml peptide, 75 µM BeSO4 was determined as 947 pg/mL.

For the origin of these results see publication PMC3698527.
